Results taken from patent US20110311585A1.

What was measured:
Test in all cases: cell-based or functional assay
[1] = target: HIV-1 envelope glycoprotein gp160, clone 005 from subject 108051, Q655R mutant (HIV-1)
[2] = target: HIV-1 envelope glycoprotein gp160, clone 005 from subject 108069, Q655R mutant (HIV-1)
[3] = target: HIV-1 envelope glycoprotein gp160, clone 022 from subject 108060, Q655R mutant (HIV-1)
[4] = target: HIV-1 envelope glycoprotein gp160, clone 024 from subject 108060, R655Q mutant (HIV-1)

Substance	IC50, pseudovirus neutralization [1] [µg/mL]	IC50, pseudovirus neutralization [2] [µg/mL]	fold increase in neutralization sensitivity against the parental virus [2] [fold]	IC50, pseudovirus neutralization [3] [µg/mL]	fold increase in neutralization sensitivity against wild-type clone 022 [3] [fold]	IC50, pseudovirus neutralization [4] [µg/mL]
CD4-IgG (from UniProt P01730 26-205) (Fc fusion)	5.21	1.08	> 20	0.161	> 125	> 20
broadly neutralizing monoclonal antibody 2F5	0.343	0.052		0.093	30 to 35	3.43
broadly neutralizing monoclonal antibody 4E10	1.31	0.044		0.156	30 to 35	6.55
broadly neutralizing, CD4 blocking monoclonal antibody (MAb) b12	> 20	> 20		> 20		> 20
enfuvirtide (peptide)	0.036	0.011	> 17	0.004	17	0.13
monoclonal antibody 2G12	> 20	> 20		> 20		> 20
